The text below walks through data of patent publication US20150368301A1.

Experiment [1] addresses Phosphorylated Nox1 peptide (pNox1, KLKT*QKIYF). Description: ITC, phosphorylated versus unphosphorylated Nox1 peptide. Background: Isothermal titration calorimetry measures the heat released or taken up as one component is titrated into another.
For experiment [2] the target is unchanged. The experiment in a line: ITC, pNox1 peptide injected into NoxA1 AD peptide, single site model, n=3, 25° C.
Experiment [3] shares this target. The experiment in a line: ITC, pNox1 peptide injected into NoxA1 AD peptide, single site model, n=3, 25° C.; phosphorylated Nox1 peptide (pNox1, T429).

pKd: −log10 of the molar value.

A word on the pKd: it is −log10 of the Kd, conventionally taken in molar units. A lower pKd goes with a large Kd. For “NoxA1 activation domain (AD) peptide (…)”, the fold increase of association against the unphosphorylated Nox1 peptide in experiment [1] is over 100 fold. In addition, in experiment [2], the stoichiometry was found to be 0.86. In experiment [3], the pKd was 5.82.
